According to patent US20240400675A1 (published 2024):
Where a chain is given by its changes, count along the chain named. Like-named read-outs stand apart in the source and are kept apart here.

T1: human CLDN6 (UniProt P56747 1-220)
T1 chain: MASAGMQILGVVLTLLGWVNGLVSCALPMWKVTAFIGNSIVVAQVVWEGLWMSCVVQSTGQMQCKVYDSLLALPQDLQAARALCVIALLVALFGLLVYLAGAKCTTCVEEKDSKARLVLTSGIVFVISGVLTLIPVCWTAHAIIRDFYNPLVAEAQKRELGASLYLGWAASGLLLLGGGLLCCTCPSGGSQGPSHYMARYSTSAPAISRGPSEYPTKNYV

T2: human CLDN9 (UniProt O95484 1-217)
T2 chain: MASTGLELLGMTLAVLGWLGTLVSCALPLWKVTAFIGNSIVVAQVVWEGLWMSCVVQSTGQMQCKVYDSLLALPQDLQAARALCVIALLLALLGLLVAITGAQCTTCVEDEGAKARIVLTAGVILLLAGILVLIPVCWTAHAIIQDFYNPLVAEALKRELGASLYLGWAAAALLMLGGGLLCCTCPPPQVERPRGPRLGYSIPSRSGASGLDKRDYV

B1: XENP36041 H2.91_L1 (antibody, V domains shown)
VH: EVQLVQSGAEVKKPGESLRISCKTSGYTFTEYTMHWVRQMPGKSLEWMGGIDPNNFNTHYNQKFQGHVTISVDKSISTAYLQWSSLKASDTAMYYCARIYYFGRLYFDFWGAGTLVTVSS
VL: DIQMTQSPSSLSASVGDRVTITCQASEDIYNRLAWYQQKPGKVPKLLISGATSLETGVPSRFSGSGSGKDYTFTISSLQPEDIATYYCQQYWSSPLTFGGGTKVEIKR
B2: XENP36022 H2.72_L1 (antibody, V domains shown)
VH: B1 VH with P53A, F56G
VL: B1 VL
B3: XENP34218, humanized C6-30 H1L1 bivalent mAb (antibody, V domains shown)
VH: QVQLVQSGAEVKKPGASVKVSCKTSGYTFTEYTMHWVRQAPGQSLEWMGGIDPNNGNTHYNQKFQGRVTITVDKSASTAYMELSSLRSEDTAVYYCARIYYFGRLYFDFWGAGTLVTVSS
VL: B1 VL
B4: XENP35886 H1.22_L1 (antibody, V domains shown)
VH: B3 VH with Y100L
VL: B1 VL
B5: XENP36065 H2.118_L1 (antibody, V domains shown)
VH: B1 VH with F56G, F64K
VL: B1 VL
B6: XENP36021 H2.71_L1 (antibody, V domains shown)
VH: B1 VH with P53L, F56G
VL: B1 VL
B7: XENP36025 H2.75_L1 (antibody, V domains shown)
VH: B1 VH with N54H, F56G
VL: B1 VL
B8: XENP35090 H1.6_L1 (antibody, V domains shown)
VH: B3 VH with N55S
VL: B1 VL
B9: XENP35888 H1.24_L1 (antibody, V domains shown)
VH: B3 VH with F102L
VL: B1 VL
B10: XENP35929 H2_L1.107 (antibody, V domains shown)
VH: B1 VH with F56G
VL: B1 VL with S94A
B11: XENP35981 H2_L1.189 (antibody, V domains shown)
VH: B1 VH with F56G
VL: B1 VL with N31L
B12: XENP35883 H1.19_L1 (antibody, V domains shown)
VH: B3 VH with V93T
VL: B1 VL
B13: XENP36066 H2.119_L1 (antibody, V domains shown)
VH: B1 VH with F56G, Q65E
VL: B1 VL
B14: XENP35891 H2.12_L1 (antibody, V domains shown)
VH: B1 VH with T28D, F56G
VL: B1 VL
B15: XENP34220, humanized C6-30 H2L1 bivalent mAb (antibody, V domains shown)
VH: B1 VH with F56G
VL: B1 VL
B16: XENP35865 H2_L1.60 (antibody, V domains shown)
VH: B1 VH with F56G
VL: B1 VL with Y91L
B17: XENP36040 H2.90_L1 (antibody, V domains shown)
VH: B1 VH with F56L
VL: B1 VL
B18: XENP35059 H2_L1.16 (antibody, V domains shown)
VH: B1 VH with F56G
VL: B1 VL with G50A
B19: XENP35979 H2_L1.187 (antibody, V domains shown)
VH: B1 VH with F56G
VL: B1 VL with Y30V
B20: XENP35936 H2_L1.114 (antibody, V domains shown)
VH: B1 VH with F56G
VL: B1 VL with S94G
B21: XENP35890 H2.11_L1 (antibody, V domains shown)
VH: B1 VH with T28S, F56G
VL: B1 VL

What was measured:
Assay in all cases: HEK293E cell binding; avid
human CLDN6 [1] = target: T1, human CLDN6
human CLDN9 [2] = target: T2, human CLDN9
human CLDN6 [3] = target: T1, human CLDN6
human CLDN9 [4] = target: T2, human CLDN9

Row | Binder | EC50 (human CLDN6 [1]) | EC50 (human CLDN9 [2]) | EC50 (human CLDN6 [3]) | EC50 (human CLDN9 [4])
1 | B1 | 0.449 µg/mL | 32.5 µg/mL |  | 
2 | B2 | 0.514 µg/mL | 47.2 µg/mL |  | 
3 | B3 | 0.344 µg/mL | 11.6 µg/mL | 1.24 µg/mL | 54.2 µg/mL
4 | B4 | 0.941 µg/mL | 24.5 µg/mL |  | 
5 | B5 | 0.783 µg/mL | 492 µg/mL |  | 
6 | B6 | 0.902 µg/mL | 49.3 µg/mL |  | 
7 | B7 | 1.34 µg/mL | 61.1 µg/mL |  | 
8 | B8 | 0.903 µg/mL | 7.06 µg/mL | 1.56 µg/mL | 44.6 µg/mL
9 | B9 | 0.657 µg/mL | 43.8 µg/mL |  | 
10 | B10 | 0.792 µg/mL | 99.1 µg/mL |  | 
11 | B11 | 0.404 µg/mL | 31.7 µg/mL |  | 
12 | B12 | 0.617 µg/mL | 16.8 µg/mL |  | 
13 | B13 | 0.567 µg/mL | 18 µg/mL |  | 
14 | B14 | 0.474 µg/mL | 44.1 µg/mL |  | 
15 | B15 | 0.391 µg/mL | 11.1 µg/mL | 1.63 µg/mL | 43.8 µg/mL
16 | B16 | 0.686 µg/mL | 124 µg/mL |  | 
17 | B17 | 0.706 µg/mL | 66.1 µg/mL |  | 
18 | B18 |  |  | 1.28 µg/mL | 32.7 µg/mL
19 | B19 | 0.323 µg/mL | 29.2 µg/mL |  | 
20 | B20 | 0.829 µg/mL | 57.4 µg/mL |  | 
21 | B21 | 0.408 µg/mL | 34.1 µg/mL |  | 
